Laboratory results from US9127260B2.

Columns and labels:
[1] = biological target: Natuphos (Natuphos 10000L, BASF), commercial phytase
[2] = biological target: T1, synthetic phytase Fus5#2 (mature) (synthetic fusion of Hafnia sp. LU11047 phytase and Yersinia mollaretii ATCC 43969 phytase fragments)
T1 sequence: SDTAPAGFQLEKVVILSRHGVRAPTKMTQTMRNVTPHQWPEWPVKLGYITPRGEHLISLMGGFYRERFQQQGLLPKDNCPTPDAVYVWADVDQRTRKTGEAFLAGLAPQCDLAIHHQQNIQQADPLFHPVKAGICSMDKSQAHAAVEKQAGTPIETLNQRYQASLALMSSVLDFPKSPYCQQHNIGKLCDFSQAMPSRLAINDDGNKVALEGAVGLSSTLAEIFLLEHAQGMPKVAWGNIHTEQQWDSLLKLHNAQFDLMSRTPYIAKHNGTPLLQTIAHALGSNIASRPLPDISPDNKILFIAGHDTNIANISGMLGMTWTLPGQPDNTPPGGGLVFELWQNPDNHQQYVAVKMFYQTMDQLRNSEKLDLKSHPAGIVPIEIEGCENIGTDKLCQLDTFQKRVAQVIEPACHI

“pepsin (Sigma P-7000, 445 U/mg) (from UniProt P00791) (enzyme)” showed a Stability to pepsin (residual phytase activity after 30 min at 37 C with 10 mg/ml pepsin, pH 2, relative to a pH 5.5 reference) [1] of 20% and a Stability to pepsin (residual phytase activity after 30 min at 37 C with 10 mg/ml pepsin, pH 2, relative to a pH 5.5 reference) [2] of 1%.
